Experimental data: US20230212587A1, “Mutant Hydroxyphenylpyruvate Dioxygenase Polypeptide, Encoding Gene Thereof and Use Therefor” (Beijing Dabeinong Biotechnology Co., Ltd., priority 2019, published 2023)

B1: AsHPPDm-F372A-02: Avena sativa HPPD mutant F372A, SEQ ID NO: 4; gene SEQ ID NO: 6 (protein)
chain: MPPTPATATGAAAAAVTPEHAARSFPRVVRVNPRSDRFPVLSFHHVELWCADAASAAGRFSFALGAPLAARSDLSTGNSAHASLLLRSGALAFLFTAPYAPPPQEAATAAATASIPSFSADAARTFAAAHGLAVRSVGVRVADAAEAFRVSVAGGARPAFAPADLGHGFGLAEVELYGDVVLRFVSYPDETDLPFLPGFERVSSPGAVDYGLTRFDHVVGNVPEMAPVIDYMKGFLGFHEFAEFTAEDVGTTESGLNSVVLANNSEAVLLPLNEPVHGTKRRSQIQTYLEYHGGPGVQHIALASNDVLRTLREMRARTPMGGFEFMAPPQAKYYEGVRRIAGDVLSEEQIKECQELGVLVDRDDQGVLLQIATKPVGDRPTFFLEMIQRIGCMEKDEVGQEYQKGGCGGFGKGNFSELFKSIEDYEKSLEVKQSVVAQKS
modifications: AsHPPDm-F372A Amido Acid Sequence
B2: ZmHPPDm-F372A-02: Zea mays HPPD mutant F372A, SEQ ID NO: 20 (protein)
chain: MPPTPTAAAAGAAVAAASAAEQAAFRLVGHRNFVRFNPRSDRFHTLAFHHVELWCADAASAAGRFSFGLGAPLAARSDLSTGNSAHASLLLRSGSLSFLFTAPYAHGADAATAALPSFSAAAARRFAADHGLAVRAVALRVADAEEAFRTSVAAGARPAFGPVDLGRGFRLAEVELYGDVVLRYVSYPDGAAGEPFLPGFEGVASPGAADYGLSRFDHIVGNVPELAPAAAYFAGFTGFHEFAEFTTEDVGTAESGLNSMVLANNSENVLLPLNEPVHGTKRRSQIQTFLDHHGGPGVQHMALASDDVLRTLREMQARSAMGGFEFMAPPTSDYYDGVRRRAGDVLTEAQIKECQELGVLVDRDDQGVLLQIAPKPVGDRPTLFLEIIQRIGCMERDEKGQEYQKGGCGGFGKGNFSQLFKSIEDYEKSLEAMQAAAAATAQGS
modifications: ZmHPPDm-F372A Amino Acid Sequence
B3: AsHPPDm-F372A-A110: Avena sativa HPPD with F372A and deletion of alanine at position 110, SEQ ID NO: 412 (protein)
chain: MPPTPATATGAAAAAVTPEHAARSFPRVVRVNPRSDRFPVLSFHHVELWCADAASAAGRFSFALGAPLAARSDLSTGNSAHASLLLRSGALAFLFTAPYAPPPQEAATAATASIPSFSADAARTFAAAHGLAVRSVGVRVADAAEAFRVSVAGGARPAFAPADLGHGFGLAEVELYGDVVLRFVSYPDETDLPFLPGFERVSSPGAVDYGLTRFDHVVGNVPEMAPVIDYMKGFLGFHEFAEFTAEDVGTTESGLNSVVLANNSEAVLLPLNEPVHGTKRRSQIQTYLEYHGGPGVQHIALASNDVLRTLREMRARTPMGGFEFMAPPQAKYYEGVRRIAGDVLSEEQIKECQELGVLVDRDDQGVLLQIATKPVGDRPTFFLEMIQRIGCMEKDEVGQEYQKGGCGGFGKGNFSELFKSIEDYEKSLEVKQSVVAQKS
modifications: AsHPPDm-F372A-A110 Amino Acid Sequence
B4: PfHPPDm-F372A-02: Pseudomonas fluorescens HPPD mutant F372A, SEQ ID NO: 30 (protein)
chain: MADLYENPMGLMGFEFIEFASPTPGTLEPIFEIMGFTKVATHRSKNVHLYRQGEINLILNNEPNSIASYFAAEHGPSVCGMAFRVKDSQKAYNRALELGAQPIHIDTGPMELNLPAIKGIGGAPLYLIDRFGEGSSIYDIDFVYLEGVERNPVGAGLKVIDHLTHNVYRGRMVYWANFYEKLFNFREARYFDIKGEYTGLTSKAMSAPDGMIRIPLNEESSKGAGQIEEFLMQFNGEGIQHVAFLTDDLVKTWDALKKIGMRFMTAPPDTYYEMLEGRLPDHGEPVDQLQARGILLDGSSVEGDKRLLLQIASETLMGPVFFEFIQRKGDDGFGEGNFKALFESIERDQVRRGVLTAD
modifications: PfHPPDm-F372A Amino Acid Sequence

System: soybean T1 plants
Assay: Tolerance of transgenic soybean T1 plants to isoxaflutole
Type: in vivo
Conditions: isoxaflutole 140 and 280 g ai/ha, 7 DAT, compared to control vector and wild-type
Description: (§1) The Arabidopsisthaliana T1 plants into which the AsHPPDm-F372A-02 nucleotide sequence was introduced, Arabidopsis thaliana T1 plants into which the AsHPPD-02 nucleotide sequence was introduced and wild-type Arabidopsisthaliana plants (18 days after sowing) were sprayed with topramezone at four different concentrations, i.e., 25 g ai/ha (one-fold field concentration, 1×), 50 g ai/ha (two-fold field concentration, 2×), 100 g ai/ha (four-fold field concentration, 4×) and 0 g ai/ha (water, 0×) to determine the tolerance of Arabidopsisthaliana to the herbicide. The degree of damage caused by the herbicide was measured for each plant according to the proportion of bleached leaf area (the proportion of bleached leaf area=bleached leaf area/total leaf area×100%) 7 days after spraying (7 DAT): the case where there is basically no bleached phenotype is defined as grade 0, the case where the proportion of bleached leaf area is less than 50% is defined as grade 1,the case where the proportion of bleached leaf area is more than 50% is defined as grade 2, and the case where the proportion of bleached leaf area is 100% grade is defined as grade 3.
(§2) In order to further verify the tolerance effect of HPPD (F372A) on other HPPD inhibitors, the soybean T1 plants into which the AsHPPDm-F372A-02 nucleotide sequence was introduced, soybean T1 plants into which the ZmHPPDm-F372A-02 nucleotide sequence was introduced, soybean T1 plants into which the PfHPPDm-F372A-02 nucleotide sequence was introduced, soybean T1 plants into which the AsHPPDm-F372A-A110 nucleotide sequence was introduced, soybean T1 plants into which the control vector DBN11375NN was introduced in Example 8, and the wild-type soybean plants (V3-V4 at seedling stage) were sprayed as follows to detect the herbicide tolerance of each soybean plants, (1) 140 g ai/ha (2-fold field concentration, 2 ×) isoxaflutole; (2) 280 g ai/ha (4-fold field concentration, 4 ×) isoxaflutole; (3) 210 g ai/ha (2-fold field concentration, 2 ×) mesotrione; (4) 420 g ai/ha (4-fold field concentration, 4 ×) mesotrione. According to the method in point 6 of Example 1, after 7 days of spraying (7 DAT), the damage degree of each plant by the herbicide was statistically analyzed, and the scoring and resistance evaluation were carried out accordingly. […]

Row | Molecule | tolerance to isoxaflutole, in words
1 | B1 | different degrees of tolerance
2 | B2 | different degrees of tolerance
3 | B3 | different degrees of tolerance
4 | B4 | different degrees of tolerance

System: soybean T1 plants
Assay: Herbicide tolerance of transgenic soybean T1 plants to topramezone
Type: in vivo
Conditions: topramezone 50 and 100 g ai/ha, 7 DAT, compared to control vector DBN11375NN and wild-type
Description: as §1
The soybean T1 plants into which the AsHPPDm-F372A-02 nucleotide sequence was introduced, soybean T1 plants into which the ZmHPPDm-F372A-02 nucleotide sequence was introduced, soybean T1 plants into which the PfHPPDm-F372A-02 nucleotide sequence was introduced, soybean T1 plants into which the AsHPPDm-F372A-A110 nucleotide sequence was introduced, soybean T1 plants into which, the PfHPPDm-F372A-G413W nucleotide sequence was introduced, soybean T1 plants into which the control vector DBN11375NN was introduced and wild-type soybean plants (V3-V4 at seedling stage) were sprayed with topramezone at two different concentrations respectively, i.e. 50 g ai/ha (2-fold field concentration, 2 ×) and 100 g ai/ha (4-fold field concentration, 4 ×) to detect the herbicide tolerance of soybean plants. According to the method in point 6 of Example 1, after 7 days of spraying (7 DAT), the damage degree of each plant by the herbicide was statistically analyzed, and the scoring and resistance evaluation were carried out accordingly. The soybean plants into which the AsHPPDm-F372A-02 nucleotide sequence was introduced were of two strains in total (S1 and S2), the soybean plants into which the ZmHPPDm-F372A-02 nucleotide sequence was introduced were of two strains in total (S3 and S4), the soybean plants into which the PfHPPDm-F372A-02 nucleotide sequence was introduced were of two strains in total (S5 and S6), the soybean plants into which the AsHPPDm-F372A-Al 10 nucleotide sequence was introduced were of two strains in total (S7 and S8), the soybean plants into which the PfHPPDm-F372A-G413W nucleotide sequence was introduced were of two strains in total (S9 and S10), the soybean plants into which the control vector DBN11375NN nucleotide sequence was introduced were of one strain in total (S11), and the wild-type soybean plants were of one strain in total (CK1); and 8 plants were selected from each strain and detected.

Row | Molecule | tolerance to topramezone, in words
5 | B1 | higher tolerance
6 | B2 | higher tolerance
7 | B3 | higher tolerance
8 | B4 | higher tolerance

System: soybean T1 plants
Assay: Tolerance of transgenic soybean T1 plants to mesotrione
Type: in vivo
Conditions: mesotrione 210 and 420 g ai/ha, 7 DAT, compared to control vector and wild-type
Description: as §1, §2

Row | Molecule | tolerance to mesotrione, in words
9 | B1 | different degrees of tolerance
10 | B2 | different degrees of tolerance
11 | B3 | different degrees of tolerance
12 | B4 | different degrees of tolerance
